Measured values taken from patent US12448430B2 (dated 2025).

T1: Wilms tumor protein 1 (WT1) peptide on HLA-A*02:01 (human)
T1 peptide: VLDFAPPGA


Tests used:
[1] = molecular target: T1, Wilms tumor protein 1 (WT1) peptide on …; experiment: killing
[2] = molecular target: T1, Wilms tumor protein 1 (WT1) peptide on …; experiment: multimer staining

binding result [2] | Binder | binding result [1]
 | WT137-45 TCR15.1 (TCR, V domains shown) Valpha: GQNIDQPTEMTATEGAIVQINCTYQTSGFNGLFWYQQHAGEAPTFLSYNVLDGLEEKGRFSSFLSRSKGYSYLLLKELQMKDSASYLCAVRGINDYKLSFGAGTTVTVRA Vbeta: DGGITQSPKYLFRKEGQNVTLSCEQNLNHDAMYWYRQDPGQGLRLIYYSQIVNDFQKGDIAEGYSVSREKKESFPLTVTSAQKNPTAFYLCASSRDREQESPLHFGNGTRLTVT | recognises
recognises | WT137-45 TCR10.1 (TCR, V domains shown) Valpha: KQEVTQIPAALSVPEGENLVLNCSFTDSAIYNLQWFRQDPGKGLTSLLLIQSSQREQTSGRLNASLDKSSGRSTLYIAASQPGDSATYLCAVKETSGSRLTFGEGTQLTVNP Vbeta: GAGVSQSPRYKVTKRGQDVALRCDPISGHVSLYWYRQALGQGPEFLTYFNYEAQQDKSGLPNDRFSAERPEGSISTLTIQRTEQRDSAMYRCASSLTGSYEQYFGPGTRLTVT | 
